According to doi:10.1101/2025.03.07.642005 (bioRxiv, 2025):

Assays:
[1] = biological target: T1, GatB, subunit B of the aminoacyl-tRNA amidotransferase complex GatCAB (Arabidopsis, UniProt Q9FV81 60-550); test: SEC
T1 sequence: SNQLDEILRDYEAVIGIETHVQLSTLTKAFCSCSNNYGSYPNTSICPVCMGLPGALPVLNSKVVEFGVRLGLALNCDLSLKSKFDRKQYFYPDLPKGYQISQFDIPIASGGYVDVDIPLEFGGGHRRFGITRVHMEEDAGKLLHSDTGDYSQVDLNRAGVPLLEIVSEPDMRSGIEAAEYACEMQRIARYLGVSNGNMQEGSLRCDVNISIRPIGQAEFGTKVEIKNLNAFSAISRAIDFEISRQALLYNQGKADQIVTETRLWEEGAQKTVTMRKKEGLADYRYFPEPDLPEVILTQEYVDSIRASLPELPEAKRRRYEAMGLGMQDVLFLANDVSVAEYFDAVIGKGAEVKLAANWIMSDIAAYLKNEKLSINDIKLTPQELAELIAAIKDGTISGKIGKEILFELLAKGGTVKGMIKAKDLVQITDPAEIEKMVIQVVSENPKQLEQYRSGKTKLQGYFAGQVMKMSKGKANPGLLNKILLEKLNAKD

[2] = biological target: T2, GatA, subunit A of the aminoacyl-tRNA amidotransferase complex GatCAB (Arabidopsis, UniProt Q9LI77 45-537); test: SEC
T2 sequence: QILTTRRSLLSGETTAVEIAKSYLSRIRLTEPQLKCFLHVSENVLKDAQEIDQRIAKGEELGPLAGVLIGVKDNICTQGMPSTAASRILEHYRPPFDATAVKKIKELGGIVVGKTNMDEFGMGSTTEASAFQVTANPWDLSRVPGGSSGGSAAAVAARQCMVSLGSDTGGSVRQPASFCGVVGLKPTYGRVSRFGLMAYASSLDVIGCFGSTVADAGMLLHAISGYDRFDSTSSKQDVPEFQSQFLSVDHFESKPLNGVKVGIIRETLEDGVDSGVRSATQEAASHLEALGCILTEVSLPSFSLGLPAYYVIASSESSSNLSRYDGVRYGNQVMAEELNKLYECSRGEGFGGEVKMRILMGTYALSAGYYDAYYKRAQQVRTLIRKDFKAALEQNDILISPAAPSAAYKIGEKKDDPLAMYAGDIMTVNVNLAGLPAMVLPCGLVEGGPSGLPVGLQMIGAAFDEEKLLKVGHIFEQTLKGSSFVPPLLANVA

B1: GatC, subunit C of the aminoacyl-tRNA amidotransferase complex GatCAB (natural protein)
chain: RSYSSDSDSSVLQPPDVARLAQTARISLTPAEIEECETKIRRVIDWFGQLQQVDVNSVEPAIRAEMDGGNLREDAPETFDNRDSIRASIPSFEDAYLKVPKILNKE
binding result [1]: binds
binding result [2]: binds
